According to patent US5681719, “DNA encoding N- and C- terminally truncated colony stimulating factor-1 variants” (Chiron Corporation, dated 1997):
Where “and” joins values, the source holds several entries; their conditions need not be identical. Equal entries are not always repeated. One block for each molecule: values may come before it.

What was measured:
[1] = biological target: T1, specific receptors for CSF-1 on J774.2 mouse macrophage cells (mouse) (UniProt P09581)
T1 sequence: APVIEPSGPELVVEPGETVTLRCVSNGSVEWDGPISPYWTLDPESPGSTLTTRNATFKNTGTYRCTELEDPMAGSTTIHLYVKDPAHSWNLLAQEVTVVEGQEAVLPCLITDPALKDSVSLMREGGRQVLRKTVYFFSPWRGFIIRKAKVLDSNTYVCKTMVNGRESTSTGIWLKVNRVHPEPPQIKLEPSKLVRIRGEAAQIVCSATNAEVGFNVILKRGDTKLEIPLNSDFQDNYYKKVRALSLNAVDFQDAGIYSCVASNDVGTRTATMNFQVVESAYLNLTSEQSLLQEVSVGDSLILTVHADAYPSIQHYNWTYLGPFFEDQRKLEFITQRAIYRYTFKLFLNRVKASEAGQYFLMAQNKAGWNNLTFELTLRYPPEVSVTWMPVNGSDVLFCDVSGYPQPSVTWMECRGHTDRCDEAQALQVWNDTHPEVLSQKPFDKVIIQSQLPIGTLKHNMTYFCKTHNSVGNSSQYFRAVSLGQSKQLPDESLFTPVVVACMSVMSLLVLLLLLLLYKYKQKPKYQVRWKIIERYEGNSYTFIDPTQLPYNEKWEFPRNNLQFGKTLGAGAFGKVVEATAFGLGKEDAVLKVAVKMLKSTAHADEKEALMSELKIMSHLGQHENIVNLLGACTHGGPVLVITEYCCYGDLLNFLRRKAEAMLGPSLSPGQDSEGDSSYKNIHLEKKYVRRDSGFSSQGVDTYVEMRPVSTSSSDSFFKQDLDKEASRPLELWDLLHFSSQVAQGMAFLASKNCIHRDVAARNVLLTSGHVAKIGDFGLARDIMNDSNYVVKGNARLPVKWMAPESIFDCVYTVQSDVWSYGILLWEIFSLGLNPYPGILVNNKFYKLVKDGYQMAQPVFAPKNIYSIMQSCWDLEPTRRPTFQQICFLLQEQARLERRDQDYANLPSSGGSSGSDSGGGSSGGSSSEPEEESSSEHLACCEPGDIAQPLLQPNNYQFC

[2] = biological target: T1, specific receptors for CSF-1 on J774.2 mouse macrophage cells (mouse); remark: listed apart in the source
[3] = biological target: T2, specific receptors for CSF-1 on J774.2 mouse macrophage cells (mouse, UniProt P09581); experiment: cell-based or functional assay
T2 sequence: T1 sequence

[4] = biological target: rabbit antisera raised against human urinary CSF-1; experiment: radioimmunoassay using anti-CSF antibodies, COS-A2 supernatant; first of three values
[5] = biological target: rabbit antisera raised against human urinary CSF-1; experiment: radioimmunoassay using anti-CSF antibodies, COS-A2 supernatant
[6] = biological target: "Rabbit 52" polyclonal antiserum raised against purified human urinary CSF-1; experiment: radioimmunoassay: competition with 125I-labelled MIAPaCa CSF-1 for Rabbit 52 antiserum; medium of SV40-infected CV-1 cells
[7] = biological target: T1, specific receptors for CSF-1 on J774.2 mouse macrophage cells (mouse); experiment: radioreceptor assay: competition with 125I-labelled CSF-1 for receptors on J774.2 mouse macrophage cells; MIAPaCa supernatant as standard

Molecule: asp59 SCSF, expression product of pCSF-asp59 (ligand)
- Bone Marrow Assay, Colony (units/ml) [1]: 9000 units/ml
- Bone Marrow Assay, Proliferation (units/ml) [1]: 3380 units/ml

Molecule: asp59 SCSF/C∇150, expression product of pCSF-asp59-gly150 (ligand)
- Mouse Bone Marrow Colony Assay, Colony Forming Units/ml (Colony Forming Units/ml) [2]: 131000

Molecule: gln52 SCSF, expression product of pCSF-gln52 (ligand)
- Bone Marrow Assay, Colony (units/ml) [1]: 6210 units/ml
- Bone Marrow Assay, Proliferation (units/ml) [1]: 2970 units/ml

B2: SCSF/C∇150, expression product of pCSF-Gly150 (ligand)
chain: EEVSEYCSHMIGSGHLQSLQRLIDSQMETSCQITFEFVDQEQLKDPVCYLKKAFLLVQYIMEDTMRFRDNTPNAIAIVQLQELSLRLKSCFTKDYEEHDKACVRTFYETPLQLLEKVKNVFNETKNLLDKDWNIFSKNCNNSFAECSSQG
- Bone Marrow Assay, Colony (units/ml) [3]: 55700 units/ml
- Radioimmunoassay (units/ml) [5]: 26800 units/ml

B4: SCSF/C∇158, expression product of pCSF-BamBcl (ligand)
chain: EEVSEYCSHMIGSGHLQSLQRLIDSQMETSCQITFEFVDQEQLKDPVCYLKKAFLLVQYIMEDTMRFRDNTPNAIAIVQLQELSLRLKSCFTKDYEEHDKACVRTFYETPLQLLEKVKNVFNETKNLLDKDWNIFSKNCNNSFAECSSQGHERQSEGS
- Radioimmunoassay (units/ml) [4]: 8800 units/ml

Continued, values first:

- Mouse Bone Marrow Colony Assay, Colony Forming Units/ml (Colony Forming Units/ml) [2]: 72000
Molecule: asp59 SCSF/C∇158, expression product of pCSF-asp59-BamBcl (ligand)

- Bone Marrow Assay, Colony (units/ml) [1]: < 100 units/ml
- Bone Marrow Assay, Proliferation (units/ml) [1]: < 25 units/ml
Molecule: pro52 SCSF, expression product of pCSF-pro52 (ligand)

- Bone Marrow Assay, Colony (units/ml) [3]: 22600 units/ml
- Radioimmunoassay (units/ml) [4]: 9600 units/ml
B1: expression product of pCSF-Bam: 158 amino acids of CSF-1 fused to six vector-derived residues (ligand)
chain: EEVSEYCSHMIGSGHLQSLQRLIDSQMETSCQITFEFVDQEQLKDPVCYLKKAFLLVQYIMEDTMRFRDNTPNAIAIVQLQELSLRLKSCFTKDYEEHDKACVRTFYETPLQLLEKVKNVFNETKNLLDKDWNIFSKNCNNSFAECSSQGHERQSEGSRHDKIH

- Bone Marrow Assay, Colony (units/ml) [1]: 11100 units/ml
- Bone Marrow Assay, Proliferation (units/ml) [1]: 2800 units/ml
- Radioimmunoassay (units/ml) [4]: 3130 units/ml
- CSF-1 by radioimmunoassay (U/ml) [6]: 2340 U/ml
- CSF-1 concentration by radioreceptor assay [7]: 2470 U/ml and 3240 U/ml
B3: SCSF, expression product of pcCSF-17 (short form of human CSF-1) (ligand)
chain: EEVSEYCSHMIGSGHLQSLQRLIDSQMETSCQITFEFVDQEQLKDPVCYLKKAFLLVQYIMEDTMRFRDNTPNAIAIVQLQELSLRLKSCFTKDYEEHDKACVRTFYETPLQLLEKVKNVFNETKNLLDKDWNIFSKNCNNSFAECSSQGHERQSEGSSSPQLQESVFHLLVPSVILVLLAVGGLLFYRWRRRSHQEPQRADSPLEQPEGSPLTQDDRQVELPV

- Radioimmunoassay (units/ml) [4]: 8450 units/ml
B5: SCSF/C∇158, expression product of pCSF-BamTGA (ligand)
chain: B4 chain
